Assay results published in paper PMC5650626, “Deletion of MtrA Inhibits Cellular Development of Streptomyces coelicolor and Alters Expression of Developmental Regulatory Genes”.

What was measured:
[1] = molecular target: T1, MtrA (MtrASCO) (Streptomyces coelicolor M145) (UniProt Q9KYW8); assay: EMSA; conditions: EMSA: 20 mM Tris-HCl pH 8.0, 2 mM EDTA, 20 mM KCl, 0.5 mM DTT, 4% Ficoll-400, 2 ug poly(dI-dC), 50 fmol probe, 20 ul, room temperature 15 min; footprinting …
T1 sequence: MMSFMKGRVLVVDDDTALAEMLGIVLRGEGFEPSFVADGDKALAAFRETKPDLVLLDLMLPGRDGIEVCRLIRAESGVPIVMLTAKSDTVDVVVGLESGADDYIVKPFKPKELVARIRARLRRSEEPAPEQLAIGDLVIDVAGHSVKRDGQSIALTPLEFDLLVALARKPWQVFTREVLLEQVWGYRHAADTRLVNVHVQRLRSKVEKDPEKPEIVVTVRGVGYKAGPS

[2] = molecular target: T2, MtrA (MtrASCO) (Streptomyces coelicolor M145, UniProt Q9KYW8 1-229); assay: EMSA; almost complete shift at 1.6 ug; EMSA: 20 mM Tris-HCl pH 8.0, 2 mM EDTA, 20 mM KCl, 0.5 mM DTT, 4% Ficoll-400, 2 ug poly(dI-dC), 50 fmol probe, 20 ul, room temperature 15 min; footprinting 25 C, 30 min, 400 ng probe, 40 ul, poly(dI-dC); conditions: protein: recombinant; tags: His-tag (pET28a NdeI/HindIII; native stop codon in primer); chain copies: 2; label: biotin-11-UTP 3' end; blunt
T2 sequence: T1 sequence

[3] = molecular target: T2, MtrA (MtrASCO); assay: EMSA; complete shift at lowest amount (1.6 ug); EMSA: 20 mM Tris-HCl pH 8.0, 2 mM EDTA, 20 mM KCl, 0.5 mM DTT, 4% Ficoll-400, 2 ug poly(dI-dC), 50 fmol probe, 20 ul, room temperature 15 min; footprinting 25 C, 30 min, 400 ng probe, 40 ul, poly(dI-dC); conditions: protein: recombinant; tags: His-tag (pET28a NdeI/HindIII; native stop codon in primer); chain copies: 2; label: biotin-11-UTP 3' end; blunt
[4] = molecular target: T2, MtrA (MtrASCO); assay: EMSA; lower affinity than whiI-a; 2.1-6.3 ug MtrA; EMSA: 20 mM Tris-HCl pH 8.0, 2 mM EDTA, 20 mM KCl, 0.5 mM DTT, 4% Ficoll-400, 2 ug poly(dI-dC), 50 fmol probe, 20 ul, room temperature 15 min; footprinting 25 C, 30 min, 400 ng probe, 40 ul, poly(dI-dC); conditions: protein: recombinant; tags: His-tag (pET28a NdeI/HindIII; native stop codon in primer); chain copies: 2; label: biotin-11-UTP 3' end; blunt
[5] = molecular target: T2, MtrA (MtrASCO); assay: EMSA; shift increases with MtrA; EMSA: 20 mM Tris-HCl pH 8.0, 2 mM EDTA, 20 mM KCl, 0.5 mM DTT, 4% Ficoll-400, 2 ug poly(dI-dC), 50 fmol probe, 20 ul, room temperature 15 min; footprinting 25 C, 30 min, 400 ng probe, 40 ul, poly(dI-dC); conditions: protein: recombinant; tags: His-tag (pET28a NdeI/HindIII; native stop codon in primer); chain copies: 2; label: biotin-11-UTP 3' end; blunt
[6] = molecular target: T2, MtrA (MtrASCO); assay: EMSA; stronger than whiI-b; 2.1-6.3 ug MtrA; EMSA: 20 mM Tris-HCl pH 8.0, 2 mM EDTA, 20 mM KCl, 0.5 mM DTT, 4% Ficoll-400, 2 ug poly(dI-dC), 50 fmol probe, 20 ul, room temperature 15 min; footprinting 25 C, 30 min, 400 ng probe, 40 ul, poly(dI-dC); conditions: protein: recombinant; tags: His-tag (pET28a NdeI/HindIII; native stop codon in primer); chain copies: 2; label: biotin-11-UTP 3' end; blunt

CGTCAGGGATGCGTCAGGAGTGCGTCAGGGGTCCGAGAGGGGTCCGACCGAGGTGCGCCGGGGCCTTCATGCATGCCCCGTACGGCCCGTCGGGGCCCGCCACGGCGCAGGCTTCACCCGCTTAACCCTCCTGGTTCGCGGTCCCCGCGGGCACGGCCCACGATCGTGCTTACGCGACCGTCGCACCCCGCCGGCCTGGCGGGCGCCGCCGACGATCGCCCCAGTCCACGAGGATGACCGGAGAAGAGGTGGGCCGGATGACGGTCT (double strand) [whiE-ORF1 upstream PCR probe (267 bp)]
binding [1]: no binding

CACCAGCCGTCGTTCATCGTTCCGGGCAGGGGGTCCGCACGTCCGGAGGAGGTTCCGTCACTTTGTCGACACGGCCACTTTCGGCCTCGTATCGACAAAGTGCGGAACCGTTCGATCTTCGAATGATCGACAGTGTGTCCGAATTGCTCGGATTGTTACTCACCAGATCGTGATCATTCTCTAAAGGCGGACGCGTTCGGTGCCGAAGACGACTGTGACCTTGAAAGCACGGTTCGTCCCGGCTTAAACCCCATGAGCCGGCCCCGTCCCCGCACCCCAGGAGGCCTGGTGTC (double strand) [whiI upstream PCR probe (293 bp)]
binding [1]: binds

GTCGTCCCCGATGGCAGGTGTAGGCCCCGCGGGTGCGTTCAGTGCCGTCACGGTTGATGCGGCAGCGGCCCGGCGTCGCGAACTTCCTTGACGTCGTGTGCCGTCGGCCGGCCGTCGCCGGCCGTGAGCCAGGGTTCTCCCGGGGCCGTGCTGCCCCTCCGTCTTTGTTCCCCTCGCGCGCTGCGAAAGACGTACGCCGTGCGAAGGCCGTCGGCTCCCGCACTCCCGACGACCTCCAACCTGTGAAATGGACGAATCATGACGA (double strand) [bldKA upstream PCR probe (265 bp)]
binding [1]: no binding

GGACATATGGCTCCCCGGACAAGGTGTCGACGCGGCAGGCTGTGTTGTCGGCCGCGCGGCTGGTAACTCACTGTGAGGTTACGCAGCGTTACTCTGCTGCGTCAAGCCGAATGGTCCGCACCGACTCTTCCGTGGTATTCGCCATCCATTACTCCGTGCGGGTGATCGATGTGGGGCAGAGGAGTGACGGGGGAGTGTCAGGGGGGTCATCGGAGAGGTTCTGTGAGCCTGCTACCGTAGGTGGCGCATATCCGACGTCCTTTAAGGTCCGTCCCGTGAGGC (double strand) [bldD upstream PCR probe (282 bp)]
binding [1]: binds

B1: SCO1189 59bp (dsDNA)
DNA 1: CTCCCGCCGACCTCACGTGCCGGTTACAAATCGCTCAACCTCTGGTTGCGAAGCGGTGA
DNA 2: TCACCGCTTCGCAACCAGAGGTTGAGCGATTTGTAACCGGCACGTGAGGTCGGCGGGAG
binding result [2]: binds

B2: SCO1489 (bldD) 59bp WT (dsDNA)
DNA 1: TGACGCAGCAGAGTAACGCTGCGTAACCTCACAGTGAGTTACCAGCCGCGCGGCCGACA
DNA 2: TGTCGGCCGCGCGGCTGGTAACTCACTGTGAGGTTACGCAGCGTTACTCTGCTGCGTCA
binding result [3]: binds

B3: SCO3485 59bp (dsDNA)
DNA 1: ATGCCCGTTGTCGACCAGGCGTGTCACCGTATGGTAAACCGGTTATCTGTGACGCGCGG
DNA 2: CCGCGCGTCACAGATAACCGGTTTACCATACGGTGACACGCCTGGTCGACAACGGGCAT
binding result [2]: binds

B4: whiI-b 59bp WT (SCO6029-b) (dsDNA)
DNA 1: TCACAGTCGTCTTCGGCACCGAACGCGTCCGCCTTTAGAGAATGATCACGATCTGGTGA
DNA 2: TCACCAGATCGTGATCATTCTCTAAAGGCGGACGCGTTCGGTGCCGAAGACGACTGTGA
binding result [4]: binds

B5: SCO7434 59bp (dsDNA)
DNA 1: ATACCGGTCCGGTGTGTCTGCGTGACGGAGCGGTTACGGACAGCATCATGAGCTCTGCA
DNA 2: TGCAGAGCTCATGATGCTGTCCGTAACCGCTCCGTCACGCAGACACACCGGACCGGTAT
binding result [5]: binds

B6: SCO2210 59bp (dsDNA)
DNA 1: GCCGCGCCACAACGAGCCCGGGTAACACGGGGTTCACCTACGGGCAACGGTCGGGAAAT
DNA 2: ATTTCCCGACCGTTGCCCGTAGGTGAACCCCGTGTTACCCGGGCTCGTTGTGGCGCGGC
binding result [5]: binds

B7: SCO3863 59bp (dsDNA)
DNA 1: CGCCCGACTATACACACCGGCCGATACCGATCGGTGACCTGCGTCGGCGGTCAACTGCC
DNA 2: GGCAGTTGACCGCCGACGCAGGTCACCGATCGGTATCGGCCGGTGTGTATAGTCGGGCG
binding result [5]: binds

B8: SCO2136 59bp (dsDNA)
DNA 1: TTCCGCCACAACTCACCTGCAGTGACGTCTTCCTGACACCACGTTGCGTGACGGTTCCG
DNA 2: CGGAACCGTCACGCAACGTGGTGTCAGGAAGACGTCACTGCAGGTGAGTTGTGGCGGAA
binding result [5]: binds

B9: whiI-a 59bp WT (SCO6029-a) (dsDNA)
DNA 1: GATCTGGTGAGTAACAATCCGAGCAATTCGGACACACTGTCGATCATTCGAAGATCGAA
DNA 2: TTCGATCTTCGAATGATCGACAGTGTGTCCGAATTGCTCGGATTGTTACTCACCAGATC
binding result [6]: binds

B10: SCO1568 59bp (dsDNA)
DNA 1: CTCTGGGTGTGCGTGACTCACCTCACGGGGCGGTCACGTTCCTGCGGGGCGGTGGTCTG
DNA 2: CAGACCACCGCCCCGCAGGAACGTGACCGCCCCGTGAGGTGAGTCACGCACACCCAGAG
binding result [5]: binds

B11: SCO7458 59bp (dsDNA)
DNA 1: GGGCGACCGGTGGTCACCTGGTGTAACAGTCTTCTTATGATCTGTAGACGAAATGATCG
DNA 2: CGATCATTTCGTCTACAGATCATAAGAAGACTGTTACACCAGGTGACCACCGGTCGCCC
binding result [5]: binds

B12: SCO5583 59bp (dsDNA)
DNA 1: ACGACGACCGGCCCCGGCCGTTCACCCACGCGTAACACGCACCGTGCCTTCGTCACGGC
DNA 2: GCCGTGACGAAGGCACGGTGCGTGTTACGCGTGGGTGAACGGCCGGGGCCGGTCGTCGT
binding result [5]: binds

B13: SCO3561 59bp (dsDNA)
DNA 1: AATTACTCTCTATTTACTCGCTGTAATCGAACGGATACTCAGGAGACGGGAACATGTCA
DNA 2: TGACATGTTCCCGTCTCCTGAGTATCCGTTCGATTACAGCGAGTAAATAGAGAGTAATT
binding result [5]: binds
